Data from patent US20160263155A1, “T CELL RECEPTORS DIRECTED AGAINST THE PREFERENTIALLY EXPRESSED ANTIGEN OF MELANOMA AND USES THEREOF” (LEIDEN UNIVERSITY MEDICAL CENTER, priority 2015, published 2016).

System: chimeric Caspase-9 polypeptide
Assay: Caspase mutant classes and basal activity (Table 3)
Format: cell-based, human
Conditions: class heading of Table 3; for IC50: ligand IC50

Chain of chimeric Caspase-9 polypeptide (as listed by the source, change not shown): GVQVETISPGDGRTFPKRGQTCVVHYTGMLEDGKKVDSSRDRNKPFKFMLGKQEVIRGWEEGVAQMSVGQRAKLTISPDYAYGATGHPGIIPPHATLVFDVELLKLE

Row | Molecule | Basal Activity | IC50
1 | N405Q (protein) GFGDVGALESLRGNADLAYILSMEPCGHCLIINNVNFCRESGLRTRTGSNIDCEKLRRRFSSLHFMVEVKGDLTAKKMVLALLELAQQDHGALDCCVVVILSHGCQASHLQFPGAVYGTDGCPVSVEKIVNIFNGTSCPSLGGKPKLFFIQACGGEQKDHGFEVASTSPEDESPGSNPEPDATPFQEGLRTFDQLDAISSLPTPSDIFVSYSTFPGFVSWRDPKSGSWYVETLDDIFEQWAHSEDLQSLLLRVANAVSVKGIYKQMPGCFQFLRKKLFFKTS | Decreased | higher IC50
2 | L329E (protein) GFGDVGALESLRGNADLAYILSMEPCGHCLIINNVNFCRESGLRTRTGSNIDCEKLRRRFSSLHFMVEVKGDLTAKKMVLALLELAQQDHGALDCCVVVILSHGCQASHLQFPGAVYGTDGCPVSVEKIVNIFNGTSCPSLGGKPKLFFIQACGGEQKDHGFEVASTSPEDESPGSNPEPDATPFQEGLRTFDQEDAISSLPTPSDIFVSYSTFPGFVSWRDPKSGSWYVETLDDIFEQWAHSEDLQSLLLRVANAVSVKGIYKQMPGCFNFLRKKLFFKTS | Decreased | higher IC50
3 | D330V (protein) GFGDVGALESLRGNADLAYILSMEPCGHCLIINNVNFCRESGLRTRTGSNIDCEKLRRRFSSLHFMVEVKGDLTAKKMVLALLELAQQDHGALDCCVVVILSHGCQASHLQFPGAVYGTDGCPVSVEKIVNIFNGTSCPSLGGKPKLFFIQACGGEQKDHGFEVASTSPEDESPGSNPEPDATPFQEGLRTFDQLVAISSLPTPSDIFVSYSTFPGFVSWRDPKSGSWYVETLDDIFEQWAHSEDLQSLLLRVANAVSVKGIYKQMPGCFNFLRKKLFFKTS | Decreased | higher IC50
4 | D330A-S144D (protein) GFGDVGALEDLRGNADLAYILSMEPCGHCLIINNVNFCRESGLRTRTGSNIDCEKLRRRFSSLHFMVEVKGDLTAKKMVLALLELAQQDHGALDCCVVVILSHGCQASHLQFPGAVYGTDGCPVSVEKIVNIFNGTSCPSLGGKPKLFFIQACGGEQKDHGFEVASTSPEDESPGSNPEPDATPFQEGLRTFDQLAAISSLPTPSDIFVSYSTFPGFVSWRDPKSGSWYVETLDDIFEQWAHSEDLQSLLLRVANAVSVKGIYKQMPGCFNFLRKKLFFKTS | Decreased | higher IC50
5 | D330G (protein) GFGDVGALESLRGNADLAYILSMEPCGHCLIINNVNFCRESGLRTRTGSNIDCEKLRRRFSSLHFMVEVKGDLTAKKMVLALLELAQQDHGALDCCVVVILSHGCQASHLQFPGAVYGTDGCPVSVEKIVNIFNGTSCPSLGGKPKLFFIQACGGEQKDHGFEVASTSPEDESPGSNPEPDATPFQEGLRTFDQLGAISSLPTPSDIFVSYSTFPGFVSWRDPKSGSWYVETLDDIFEQWAHSEDLQSLLLRVANAVSVKGIYKQMPGCFNFLRKKLFFKTS | Decreased | higher IC50
6 | S195A (protein) GFGDVGALESLRGNADLAYILSMEPCGHCLIINNVNFCRESGLRTRTGSNIDCEKLRRRFASLHFMVEVKGDLTAKKMVLALLELAQQDHGALDCCVVVILSHGCQASHLQFPGAVYGTDGCPVSVEKIVNIFNGTSCPSLGGKPKLFFIQACGGEQKDHGFEVASTSPEDESPGSNPEPDATPFQEGLRTFDQLDAISSLPTPSDIFVSYSTFPGFVSWRDPKSGSWYVETLDDIFEQWAHSEDLQSLLLRVANAVSVKGIYKQMPGCFNFLRKKLFFKTS | Decreased | higher IC50
7 | D330A-S183A (protein) GFGDVGALESLRGNADLAYILSMEPCGHCLIINNVNFCRESGLRTRTGANIDCEKLRRRFSSLHFMVEVKGDLTAKKMVLALLELAQQDHGALDCCVVVILSHGCQASHLQFPGAVYGTDGCPVSVEKIVNIFNGTSCPSLGGKPKLFFIQACGGEQKDHGFEVASTSPEDESPGSNPEPDATPFQEGLRTFDQLAAISSLPTPSDIFVSYSTFPGFVSWRDPKSGSWYVETLDDIFEQWAHSEDLQSLLLRVANAVSVKGIYKQMPGCFNFLRKKLFFKTS | Decreased | higher IC50
8 | S183A (protein) GFGDVGALESLRGNADLAYILSMEPCGHCLIINNVNFCRESGLRTRTGANIDCEKLRRRFSSLHFMVEVKGDLTAKKMVLALLELAQQDHGALDCCVVVILSHGCQASHLQFPGAVYGTDGCPVSVEKIVNIFNGTSCPSLGGKPKLFFIQACGGEQKDHGFEVASTSPEDESPGSNPEPDATPFQEGLRTFDQLDAISSLPTPSDIFVSYSTFPGFVSWRDPKSGSWYVETLDDIFEQWAHSEDLQSLLLRVANAVSVKGIYKQMPGCFNFLRKKLFFKTS | Decreased | higher IC50
9 | S196A (protein) GFGDVGALESLRGNADLAYILSMEPCGHCLIINNVNFCRESGLRTRTGSNIDCEKLRRRFSALHFMVEVKGDLTAKKMVLALLELAQQDHGALDCCVVVILSHGCQASHLQFPGAVYGTDGCPVSVEKIVNIFNGTSCPSLGGKPKLFFIQACGGEQKDHGFEVASTSPEDESPGSNPEPDATPFQEGLRTFDQLDAISSLPTPSDIFVSYSTFPGFVSWRDPKSGSWYVETLDDIFEQWAHSEDLQSLLLRVANAVSVKGIYKQMPGCFNFLRKKLFFKTS | Decreased | higher IC50
10 | D330A-S144A (protein) GFGDVGALEALRGNADLAYILSMEPCGHCLIINNVNFCRESGLRTRTGSNIDCEKLRRRFSSLHFMVEVKGDLTAKKMVLALLELAQQDHGALDCCVVVILSHGCQASHLQFPGAVYGTDGCPVSVEKIVNIFNGTSCPSLGGKPKLFFIQACGGEQKDHGFEVASTSPEDESPGSNPEPDATPFQEGLRTFDQLAAISSLPTPSDIFVSYSTFPGFVSWRDPKSGSWYVETLDDIFEQWAHSEDLQSLLLRVANAVSVKGIYKQMPGCFNFLRKKLFFKTS | Decreased | higher IC50
11 | D330A-S196A (protein) GFGDVGALESLRGNADLAYILSMEPCGHCLIINNVNFCRESGLRTRTGSNIDCEKLRRRFSALHFMVEVKGDLTAKKMVLALLELAQQDHGALDCCVVVILSHGCQASHLQFPGAVYGTDGCPVSVEKIVNIFNGTSCPSLGGKPKLFFIQACGGEQKDHGFEVASTSPEDESPGSNPEPDATPFQEGLRTFDQLAAISSLPTPSDIFVSYSTFPGFVSWRDPKSGSWYVETLDDIFEQWAHSEDLQSLLLRVANAVSVKGIYKQMPGCFNFLRKKLFFKTS | Decreased | higher IC50
12 | T317A (protein) GFGDVGALESLRGNADLAYILSMEPCGHCLIINNVNFCRESGLRTRTGSNIDCEKLRRRFSSLHFMVEVKGDLTAKKMVLALLELAQQDHGALDCCVVVILSHGCQASHLQFPGAVYGTDGCPVSVEKIVNIFNGTSCPSLGGKPKLFFIQACGGEQKDHGFEVASTSPEDESPGSNPEPDAAPFQEGLRTFDQLDAISSLPTPSDIFVSYSTFPGFVSWRDPKSGSWYVETLDDIFEQWAHSEDLQSLLLRVANAVSVKGIYKQMPGCFNFLRKKLFFKTS | Decreased | higher IC50
13 | D330S (protein) GFGDVGALESLRGNADLAYILSMEPCGHCLIINNVNFCRESGLRTRTGSNIDCEKLRRRFSSLHFMVEVKGDLTAKKMVLALLELAQQDHGALDCCVVVILSHGCQASHLQFPGAVYGTDGCPVSVEKIVNIFNGTSCPSLGGKPKLFFIQACGGEQKDHGFEVASTSPEDESPGSNPEPDATPFQEGLRTFDQLSAISSLPTPSDIFVSYSTFPGFVSWRDPKSGSWYVETLDDIFEQWAHSEDLQSLLLRVANAVSVKGIYKQMPGCFNFLRKKLFFKTS | Decreased | higher IC50
14 | D330N (protein) GFGDVGALESLRGNADLAYILSMEPCGHCLIINNVNFCRESGLRTRTGSNIDCEKLRRRFSSLHFMVEVKGDLTAKKMVLALLELAQQDHGALDCCVVVILSHGCQASHLQFPGAVYGTDGCPVSVEKIVNIFNGTSCPSLGGKPKLFFIQACGGEQKDHGFEVASTSPEDESPGSNPEPDATPFQEGLRTFDQLNAISSLPTPSDIFVSYSTFPGFVSWRDPKSGSWYVETLDDIFEQWAHSEDLQSLLLRVANAVSVKGIYKQMPGCFNFLRKKLFFKTS | Decreased | higher IC50
15 | D330A-N405Q (protein) GFGDVGALESLRGNADLAYILSMEPCGHCLIINNVNFCRESGLRTRTGSNIDCEKLRRRFSSLHFMVEVKGDLTAKKMVLALLELAQQDHGALDCCVVVILSHGCQASHLQFPGAVYGTDGCPVSVEKIVNIFNGTSCPSLGGKPKLFFIQACGGEQKDHGFEVASTSPEDESPGSNPEPDATPFQEGLRTFDQLAAISSLPTPSDIFVSYSTFPGFVSWRDPKSGSWYVETLDDIFEQWAHSEDLQSLLLRVANAVSVKGIYKQMPGCFQFLRKKLFFKTS | Decreased | higher IC50
16 | ^402GCFNF^406ISAQT: Caspase-9 homodimerization domain mutant (SEQ ID NOS 95 and 96) (Casp-10) (protein, UniProt P55211 1-416, looked up, variant G402I C403S F404A N405Q F406T) MDEADRRLLRRCRLRLVEELQVDQLWDALLSRELFRPHMIEDIQRAGSGSRRDQARQLIIDLETRGSQALPLFISCLEDTGQDMLASFLRTNRQAAKLSKPTLENLTPVVLRPEIRKPEVLRPETPRPVDIGSGGFGDVGALESLRGNADLAYILSMEPCGHCLIINNVNFCRESGLRTRTGSNIDCEKLRRRFSSLHFMVEVKGDLTAKKMVLALLELAQQDHGALDCCVVVILSHGCQASHLQFPGAVYGTDGCPVSVEKIVNIFNGTSCPSLGGKPKLFFIQACGGEQKDHGFEVASTSPEDESPGSNPEPDATPFQEGLRTFDQLDAISSLPTPSDIFVSYSTFPGFVSWRDPKSGSWYVETLDDIFEQWAHSEDLQSLLLRVANAVSVKGIYKQMPISAQTLRKKLFFKTS | Decreased | higher IC50
